Measured values from patent US7348407 (dated 2008).
One block for each binder: values may come before it.

How the values were obtained:
[1] = target: T1, his-tagged wild-type JMY (pET-JMY, bacterially expressed) (UniProt Q9QXM1 1-983); test: binding properties of the STRAP mutant derivative
T1 construct: also called His-JMY; purified recombinant JMY; not shown: His tag from pET28a

[2] = target: T2, Flag-tagged full-length p300 (baculovirus expressed, on M2-anti-flag antibody agarose) (UniProt Q09472 2-2414, limits assumed); test: binding properties of the STRAP mutant derivative
T2 construct: mature; also called flag-p300; flag-tagged wild-type p300; not shown: Flag tag

[3] = target: T1, his-tagged wild-type JMY (pET-JMY, …); test: summary of the biochemical binding assays
[4] = target: T2, Flag-tagged full-length p300 …; test: biochemical binding assay with a panel of p300 derivatives
[5] = target: JMY1-119 (pCMV-HA-JMY1-119, in vitro translated) (UniProt Q9QXM1 1-119); test: in vitro translated JMY derivatives tested for binding to STRAP
[6] = target: T3, JMY683-983 (pCMV-HA-JMY683-983, in vitro translated) (UniProt Q9QXM1 683-983); test: as above
T3 sequence (looked up): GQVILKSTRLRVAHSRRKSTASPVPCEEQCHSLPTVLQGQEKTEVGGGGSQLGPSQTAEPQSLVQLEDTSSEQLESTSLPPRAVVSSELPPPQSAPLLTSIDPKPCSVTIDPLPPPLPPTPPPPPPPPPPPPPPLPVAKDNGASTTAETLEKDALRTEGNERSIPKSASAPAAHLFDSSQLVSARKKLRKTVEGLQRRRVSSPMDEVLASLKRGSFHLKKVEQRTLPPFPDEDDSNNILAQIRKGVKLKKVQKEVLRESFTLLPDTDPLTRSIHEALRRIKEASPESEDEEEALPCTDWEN

[7] = target: T1, his-tagged wild-type JMY (pET-JMY, …); test: in vitro translated STRAP derivative binding to his-tagged wild-type JMY
[8] = target: T2, Flag-tagged full-length p300 …; test: in vitro translated STRAP derivative binding to flag-tagged wild-type p300 on anti-flag agarose
[9] = target: T1, his-tagged wild-type JMY (pET-JMY, …); test: biochemical binding assay with STRAP derivatives (summary in FIG. 7)
[10] = target: T2, Flag-tagged full-length p300 …; test: as above
[11] = target: p300 (pCMV-p300, expressed in transfected cells) (UniProt Q09472 1-2414); test: co-immunoprecipitation from STRAP expressing U2OS cells treated with etoposide, against untreated cells
Sequence of p300 (pCMV-p300, expressed in transfected cells) (Q09472 whole entry): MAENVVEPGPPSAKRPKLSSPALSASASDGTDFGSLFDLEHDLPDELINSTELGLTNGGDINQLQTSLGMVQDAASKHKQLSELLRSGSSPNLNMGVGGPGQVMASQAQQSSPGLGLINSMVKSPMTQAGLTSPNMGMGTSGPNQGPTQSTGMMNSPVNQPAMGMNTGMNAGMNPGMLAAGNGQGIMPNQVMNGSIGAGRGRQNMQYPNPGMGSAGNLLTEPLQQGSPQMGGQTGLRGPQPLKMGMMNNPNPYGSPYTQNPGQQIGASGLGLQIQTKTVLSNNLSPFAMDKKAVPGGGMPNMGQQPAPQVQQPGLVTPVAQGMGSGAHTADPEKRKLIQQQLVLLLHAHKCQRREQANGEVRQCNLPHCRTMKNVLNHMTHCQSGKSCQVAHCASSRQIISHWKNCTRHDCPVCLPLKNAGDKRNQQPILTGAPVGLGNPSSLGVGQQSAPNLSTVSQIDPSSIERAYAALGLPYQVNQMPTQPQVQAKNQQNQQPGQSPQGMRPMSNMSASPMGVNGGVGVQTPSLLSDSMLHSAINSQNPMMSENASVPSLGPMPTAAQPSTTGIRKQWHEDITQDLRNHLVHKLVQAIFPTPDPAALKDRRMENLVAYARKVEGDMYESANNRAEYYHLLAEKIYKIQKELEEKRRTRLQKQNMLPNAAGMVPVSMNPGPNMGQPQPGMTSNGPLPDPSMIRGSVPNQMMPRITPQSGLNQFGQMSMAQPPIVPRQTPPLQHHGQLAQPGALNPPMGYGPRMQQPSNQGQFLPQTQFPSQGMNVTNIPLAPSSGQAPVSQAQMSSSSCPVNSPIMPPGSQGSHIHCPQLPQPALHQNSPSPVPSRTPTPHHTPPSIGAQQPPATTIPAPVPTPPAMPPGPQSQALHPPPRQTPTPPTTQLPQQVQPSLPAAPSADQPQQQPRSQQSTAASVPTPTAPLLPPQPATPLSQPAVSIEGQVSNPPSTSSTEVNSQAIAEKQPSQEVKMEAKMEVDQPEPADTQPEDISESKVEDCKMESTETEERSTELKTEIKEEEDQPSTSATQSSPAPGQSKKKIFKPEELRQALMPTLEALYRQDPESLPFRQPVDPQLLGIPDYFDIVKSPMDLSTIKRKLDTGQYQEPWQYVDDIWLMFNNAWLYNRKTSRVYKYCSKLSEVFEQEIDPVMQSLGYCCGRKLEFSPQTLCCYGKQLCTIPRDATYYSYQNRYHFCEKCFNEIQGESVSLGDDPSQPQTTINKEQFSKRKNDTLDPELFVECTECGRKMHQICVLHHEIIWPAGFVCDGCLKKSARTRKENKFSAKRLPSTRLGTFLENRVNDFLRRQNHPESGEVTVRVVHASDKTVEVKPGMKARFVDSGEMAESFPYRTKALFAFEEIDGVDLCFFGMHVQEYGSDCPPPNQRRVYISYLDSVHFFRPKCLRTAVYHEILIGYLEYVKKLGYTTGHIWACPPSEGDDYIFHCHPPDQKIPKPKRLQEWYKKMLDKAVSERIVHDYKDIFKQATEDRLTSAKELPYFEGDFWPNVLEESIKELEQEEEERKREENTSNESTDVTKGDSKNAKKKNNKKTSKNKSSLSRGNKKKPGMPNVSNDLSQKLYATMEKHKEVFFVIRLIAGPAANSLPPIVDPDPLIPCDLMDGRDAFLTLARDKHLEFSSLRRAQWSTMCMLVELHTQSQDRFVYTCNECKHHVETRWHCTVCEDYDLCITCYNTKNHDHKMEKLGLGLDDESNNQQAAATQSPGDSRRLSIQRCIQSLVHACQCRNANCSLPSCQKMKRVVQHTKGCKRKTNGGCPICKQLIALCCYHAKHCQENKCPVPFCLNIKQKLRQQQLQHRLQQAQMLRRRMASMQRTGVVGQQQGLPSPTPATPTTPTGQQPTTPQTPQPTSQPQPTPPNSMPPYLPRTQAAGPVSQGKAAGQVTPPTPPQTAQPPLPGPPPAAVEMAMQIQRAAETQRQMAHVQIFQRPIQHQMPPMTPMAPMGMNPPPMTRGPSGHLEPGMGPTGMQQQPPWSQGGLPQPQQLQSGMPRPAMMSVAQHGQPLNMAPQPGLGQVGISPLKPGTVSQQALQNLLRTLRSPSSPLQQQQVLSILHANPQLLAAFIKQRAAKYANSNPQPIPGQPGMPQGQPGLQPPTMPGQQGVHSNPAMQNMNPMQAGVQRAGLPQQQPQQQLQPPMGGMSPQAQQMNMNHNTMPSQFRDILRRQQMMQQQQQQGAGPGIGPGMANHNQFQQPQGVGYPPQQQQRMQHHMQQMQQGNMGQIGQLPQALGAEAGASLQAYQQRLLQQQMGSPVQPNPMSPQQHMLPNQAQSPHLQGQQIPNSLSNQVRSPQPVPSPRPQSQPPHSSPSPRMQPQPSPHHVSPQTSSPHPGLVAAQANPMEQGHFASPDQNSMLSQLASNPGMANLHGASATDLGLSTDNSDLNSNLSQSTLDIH

T2 sequence (Q09472 2-2414 limits assumed): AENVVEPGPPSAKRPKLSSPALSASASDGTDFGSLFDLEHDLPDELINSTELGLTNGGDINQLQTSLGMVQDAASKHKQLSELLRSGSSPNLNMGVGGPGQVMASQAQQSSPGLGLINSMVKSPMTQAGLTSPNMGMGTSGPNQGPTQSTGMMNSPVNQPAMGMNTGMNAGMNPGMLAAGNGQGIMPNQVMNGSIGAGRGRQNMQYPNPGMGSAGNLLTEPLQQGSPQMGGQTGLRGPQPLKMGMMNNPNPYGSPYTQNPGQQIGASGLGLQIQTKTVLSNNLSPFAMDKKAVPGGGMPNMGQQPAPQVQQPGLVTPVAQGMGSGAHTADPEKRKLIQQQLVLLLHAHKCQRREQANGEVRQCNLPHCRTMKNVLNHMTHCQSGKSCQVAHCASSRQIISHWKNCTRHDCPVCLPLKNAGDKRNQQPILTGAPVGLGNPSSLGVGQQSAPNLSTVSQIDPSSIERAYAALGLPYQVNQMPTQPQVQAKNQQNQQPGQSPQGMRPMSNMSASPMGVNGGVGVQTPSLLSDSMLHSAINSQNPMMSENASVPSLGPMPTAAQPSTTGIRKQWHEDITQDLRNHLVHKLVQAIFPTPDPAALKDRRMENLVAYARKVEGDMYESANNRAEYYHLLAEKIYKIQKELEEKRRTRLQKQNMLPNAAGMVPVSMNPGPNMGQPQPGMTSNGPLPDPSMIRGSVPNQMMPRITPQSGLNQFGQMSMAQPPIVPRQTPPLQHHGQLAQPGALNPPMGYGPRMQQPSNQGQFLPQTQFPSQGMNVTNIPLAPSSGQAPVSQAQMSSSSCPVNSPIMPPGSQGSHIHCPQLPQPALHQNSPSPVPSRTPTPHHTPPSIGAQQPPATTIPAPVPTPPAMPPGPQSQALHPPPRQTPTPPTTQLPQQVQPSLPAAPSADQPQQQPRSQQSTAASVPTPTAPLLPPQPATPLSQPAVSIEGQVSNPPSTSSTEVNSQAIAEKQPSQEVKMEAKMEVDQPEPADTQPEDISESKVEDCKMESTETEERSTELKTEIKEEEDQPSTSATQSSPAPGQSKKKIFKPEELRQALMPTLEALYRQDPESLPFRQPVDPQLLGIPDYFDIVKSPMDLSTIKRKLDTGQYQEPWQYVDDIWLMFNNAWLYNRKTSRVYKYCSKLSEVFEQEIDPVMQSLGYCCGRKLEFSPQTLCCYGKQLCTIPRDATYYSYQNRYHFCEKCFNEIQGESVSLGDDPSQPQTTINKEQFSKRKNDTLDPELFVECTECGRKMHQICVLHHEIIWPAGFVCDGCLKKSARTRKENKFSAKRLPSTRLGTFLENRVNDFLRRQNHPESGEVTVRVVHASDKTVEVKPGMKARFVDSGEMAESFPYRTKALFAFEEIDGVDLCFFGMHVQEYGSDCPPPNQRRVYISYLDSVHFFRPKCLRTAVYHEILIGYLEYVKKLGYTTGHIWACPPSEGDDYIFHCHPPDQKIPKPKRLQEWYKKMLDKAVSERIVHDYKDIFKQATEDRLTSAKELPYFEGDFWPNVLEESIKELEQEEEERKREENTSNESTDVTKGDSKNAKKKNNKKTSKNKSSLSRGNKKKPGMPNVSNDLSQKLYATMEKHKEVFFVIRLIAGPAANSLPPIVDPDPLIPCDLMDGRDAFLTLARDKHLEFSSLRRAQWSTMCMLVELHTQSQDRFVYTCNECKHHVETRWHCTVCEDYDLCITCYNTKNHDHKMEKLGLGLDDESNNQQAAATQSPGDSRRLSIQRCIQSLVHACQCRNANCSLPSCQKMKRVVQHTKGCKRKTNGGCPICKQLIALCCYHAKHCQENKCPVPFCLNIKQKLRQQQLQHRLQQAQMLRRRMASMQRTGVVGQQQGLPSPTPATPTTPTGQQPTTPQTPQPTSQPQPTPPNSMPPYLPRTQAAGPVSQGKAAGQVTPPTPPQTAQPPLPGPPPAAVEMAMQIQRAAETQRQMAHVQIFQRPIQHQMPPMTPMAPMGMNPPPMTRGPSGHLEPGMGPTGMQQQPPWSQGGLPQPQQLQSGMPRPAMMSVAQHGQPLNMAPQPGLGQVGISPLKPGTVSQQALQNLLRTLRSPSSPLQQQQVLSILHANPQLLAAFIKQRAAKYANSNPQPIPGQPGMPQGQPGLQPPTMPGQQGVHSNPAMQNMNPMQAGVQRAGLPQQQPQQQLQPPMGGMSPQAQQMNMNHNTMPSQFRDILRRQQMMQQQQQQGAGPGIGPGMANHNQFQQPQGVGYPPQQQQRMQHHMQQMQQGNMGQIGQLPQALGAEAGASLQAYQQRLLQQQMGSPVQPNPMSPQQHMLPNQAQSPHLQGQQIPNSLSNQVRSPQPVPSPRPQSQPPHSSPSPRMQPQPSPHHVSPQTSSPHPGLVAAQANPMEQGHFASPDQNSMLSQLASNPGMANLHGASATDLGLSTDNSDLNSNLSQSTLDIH

B1: STRAP8-205 (other, not shown: small tags and cut ends)
chain: EAKHVLQKLQGLVDRLYCFRDSYFETHSVEDAGRKQQDVQEEMEKTLQQMEEVLGSAQVEAQALMLKGKALNVTPDYSPEAEVLLSKAVKLEPELVEAWNQLGEVYWKKGDVTSAHTCFSGALTHCKNKVSLQNLSMVLRQLQTDSGDEHSRHVMDSVRQAKLAVQMDVLDGRSWYILGNAYLSLYFNTGQNPKISQQ
binding result [1]: binds
binding result [2]: no binding

B3: STRAP206-438 (other, not shown: small tags and cut ends)
chain: ALSAYAQAEKVDRKASSNPDLHLNRATLHKYEESYGEALEGFSQAAALDPAWPEPQQREQQLLEFLSRLTSLLESKGKTKPKKLQSMLGSLRPAHLGPCGDGRYQSASGQKMTLELKPLSTLQPGVNSGTVVLGKVVFSLTTEEKVPFTFGLVDSDGPCYAVMVYNVVQSWGVLIGDSVAIPEPNLRHHQIRHKGKDYSFSSVRVETPLLLVVNGKPQNSSSQASATVASRPQ
notes: In vitro translated
binding result [7]: binds
binding result [8]: binds

B6: JMY (pCMV-JMY, expressed in transfected cells) (other, UniProt Q9QXM1 1-983, looked up)
chain: MSFALEETLESDWVAVRPHVFDEREKHKFVFIVAWNEIEGKFAITCHNRTAQRQRSGSREQAGTPASDGSRGPGSPAARGRSEAAASATAALRSPGPRKSQAWAEGGSPRSARSLKGDPPRGPAGRGPESPLRSPARAKASPLRRSAESRDAIASATPVPPAPPVPPVSSVRVVSASGAVSEEIEVLEMVREDEAPQPLPDSEQPPSAAELESSAEECSWAGLFSFQDLRAVHQQLCSVNSQLEPCLPVFPEEPSGMWTVLFGGAPEMTEQEIDALCYQLQVYLGHGLDTCGWKILSQVLFTETDDPEEYYESLSELRQKGYEEVLQRARRRIQELLDKHKTIESMVELLDLYQMEDEAYSSLAEATTELYQYLLQPFRDMRELAMLRRQQIKISMENDYLGPRRIESLQKEDADWQRKAHMAVLSIQDLTVKYFEITAKAQKAVYDRMRADQKKFGKASWAAAAERMEKLQYAVSKETLQMMRAKEICLEQKKHALKEEMQSLQGGTEAIARLDQLESDYYDLQLQLYEVQFEILKCEELLLTAQLESIKRLISEKRDEVVYYDTYESMEAMLEKEEMAASVHAQREELQKLQQKARQLEARRGRVSAKKAYLRNKKEICIAKHHEKFQQRFQSEDEYRAHHTIQIKRDKLHDEEERKSAWVSQERQRTLDRLRTFKQRYPGQVILKSTRLRVAHSRRKSTASPVPCEEQCHSLPTVLQGQEKTEVGGGGSQLGPSQTAEPQSLVQLEDTSSEQLESTSLPPRAVVSSELPPPQSAPLLTSIDPKPCSVTIDPLPPPLPPTPPPPPPPPPPPPPPLPVAKDNGASTTAETLEKDALRTEGNERSIPKSASAPAAHLFDSSQLVSARKKLRKTVEGLQRRRVSSPMDEVLASLKRGSFHLKKVEQRTLPPFPDEDDSNNILAQIRKGVKLKKVQKEVLRESFTLLPDTDPLTRSIHEALRRIKEASPESEDEEEALPCTDWEN
notes: also called JMY co-factor; wild-type JMY
fold increase in the level of co-immunoprecipitated JMY with p300 [11]: ~10 fold

Other lines, results leading:

binding result [3]: binds
binding result [4]: binds
binding result [5]: binds
binding result [6]: binds
B2: STRAP (construct not stated for the experiment) (other)
chain: EAKHVLQKLQGLVDRLYCFRDSYFETHSVEDAGRKQQDVQEEMEKTLQQMEEVLGSAQVEAQALMLKGKALNVTPDYSPEAEVLLSKAVKLEPELVEAWNQLGEVYWKKGDVTSAHTCFSGALTHCKNKVSLQNLSMVLRQLQTDSGDEHSRHVMDSVRQAKLAVQMDVLDGRSWYILGNAYLSLYFNTGQNPKISQQALSAYAQAEKVDRKASSNPDLHLNRATLHKYEESYGEALEGFSQAAALDPAWPEPQQREQQLLEFLSRLTSLLESKGKTKPKKLQSMLGSLRPAHLGPCGDGRYQSASGQKMTLELKPLSTLQPGVNSGTVVLGKVVFSLTTEEKVPFTFGLVDSDGPCYAVMVYNVVQSWGVLIGDSVAIPEPNLRHHQIRHKGKDYSFSSVRVETPLLLVVNGKPQNSSSQASATVASRPQ
notes: also called 60,000 molecular weight STRAP polypeptide

binding result [9]: binds
binding result [10]: no binding
B4: STRAP8-123 (other)
chain: EAKHVLQKLQGLVDRLYCFRDSYFETHSVEDAGRKQQDVQEEMEKTLQQMEEVLGSAQVEAQALMLKGKALNVTPDYSPEAEVLLSKAVKLEPELVEAWNQLGEVYWKKGDVTSAH
notes: A pET form also exists; not shown: HA tag (pCMV-HA, in vitro translated) or His tag (pET28C, purified)

binding result [7]: binds
B5: STRAP123-205 (other, not shown: small tags and cut ends)
chain: HTCFSGALTHCKNKVSLQNLSMVLRQLQTDSGDEHSRHVMDSVRQAKLAVQMDVLDGRSWYILGNAYLSLYFNTGQNPKISQQ
notes: In vitro translated
